Data reported in patent publication US20220119450A1 (UNIVERSITY OF TARTU, published 2022).
No end group written: not given here. FAM = 5(6)-carboxyfluorescein; Ahx = NCCCCCC(=O)O

T1: recombinant His-tagged tenascin-C C domain (TNC-C)
T1 construct: 112 amino acids, expressed in E. coli from pET28a+ with N-terminal His-tag
T1 chain: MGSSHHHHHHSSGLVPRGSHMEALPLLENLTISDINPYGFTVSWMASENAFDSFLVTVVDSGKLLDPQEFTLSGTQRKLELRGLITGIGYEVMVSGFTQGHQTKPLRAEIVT

B1: synthetic FAM-labeled PL1 peptide (peptide)
peptide: {FAM-Ahx}-PPRRGLIKLKTS-OH
notes: Immobilized on ELISA plate and probed with His-tagged recombinant proteins; also called FAM-PL1
B2: Fn-EDB-selected peptide phage clone 17, KVKKRGA (peptide)
peptide: KVKKRGA
B3: PL2 peptide displayed on T7 phage (TSKQNSR) (peptide)
peptide: TSKQNSR
notes: also called phage PL2 peptide
B4: Fn-EDB-selected peptide phage clone 33, RESRRGRVKLAAALE (peptide)
peptide: RESRRGRVKLAAALE
B5: Fn-EDB-selected peptide phage clone 10, GTRRRSRINLAAALE (peptide)
peptide: GTRRRSRINLAAALE
B6: Fn-EDB-selected peptide phage clone 3, GLGGRRIKLKTS (peptide)
peptide: GLGGRRIKLKTS
B7: Fn-EDB-selected peptide phage clone 24, VHERTRI (peptide)
peptide: VHERTRI
B8: Fn-EDB-selected peptide phage clone 4, GRRGRVIKLKTSEPPQ (peptide)
peptide: GRRGRVIKLKTSEPPQ
B9: Fn-EDB-selected peptide phage clone 2, TKRKGKG (peptide)
peptide: TKRKGKG
B10: PL5 peptide displayed on T7 phage (PPRRGLIKLKTSSNTKENSVVASLRP) (peptide)
peptide: PPRRGLIKLKTSSNTKENSVVASLRP
modifications: not fully specified (N-terminus); also: displayed on T7 phage capsid protein
notes: 26-aa peptide at the C-terminus of the T7 major capsid protein, arisen by a frameshift; also called PL5 phage
B11: PL3-functionalized silver nanoparticles (biotinylated PL3 peptide on NeutrAvidin-coated AgNPs) (peptide)
peptide: AGRGRLVR
modifications: not fully specified (N-terminus); also: biotinylated, site not given here, bound to NeutrAvidin on dye-labeled PEGylated silver nanoparticles
notes: Multivalent display on nanoparticles; also called PL3-AgNPs; AgNP-PL3
B12: TNC-C-selected peptide phage clone 1, AGVGRLRRAKLAAALE (peptide)
peptide: AGVGRLRRAKLAAALE
B13: TNC-C-selected peptide phage clone 36, CQRMGVVGAKLAAALE (peptide)
peptide: CQRMGVVGAKLAAALE
B14: TNC-C-selected peptide phage clone 4, CSRRGILRAKPAAALE (peptide)
peptide: CSRRGILRAKPAAALE
B15: TNC-C-selected peptide phage clone 30, VGRVRFSRKLAAALE (peptide)
peptide: VGRVRFSRKLAAALE
B16: TNC-C-selected peptide phage clone 2, CRGVLRRAKLAAALE (peptide)
peptide: CRGVLRRAKLAAALE
B17: TNC-C-selected peptide phage clone 5, AGRGRLVRAKLAAALE (peptide)
peptide: AGRGRLVRAKLAAALE
B18: TNC-C-selected peptide phage clone 46, GRLTRVR (peptide)
peptide: GRLTRVR
B19: TNC-C-selected peptide phage clone 44 (Seq ID No. 37) (peptide)
peptide: RGRLRRVE
B20: TNC-C-selected peptide phage clone 35, RRLVRVA (peptide)
peptide: RRLVRVA
B21: TNC-C-selected peptide phage clone 45, RGRLVRA (peptide)
peptide: RGRLVRA

Biological target: T1, recombinant His-tagged tenascin-C C …
Assay: ELISA: immobilized FAM-PL1 probed with His-tagged protein, anti-His-tag antibody, HRP
Description: (§1) The FAM-labeled peptides were coated on ELISA plates (Nunc Maxisorp, Thermo Fisher Scientific Inc., MA, USA), blocked with PBS containing 1% BSA, and incubated with recombinant proteins at 2 μg/well in PBS for 6 h. The protein was detected using an anti-His-tag antibody, followed by horseradish peroxidase-conjugated secondary antibody, chromogenic reaction, and measurement of absorbance at 450 nm with a microplate reader (Tecan Austria GmbH, Grödig, Austria).
(§2) Immobilized FAM-PL1 was probed with recombinant His-tagged EDB and TNC-C (or control BSA), followed by sequential incubation with rabbit anti-His-tag primary antibody, secondary goat anti-rabbit HRP antibody and a chromogenic peroxidase reaction.

B1: binds.

Biological target: T2, recombinant His-tagged fibronectin extra domain B (FN-EDB)
T2 construct: 112 amino acids, expressed in E. coli from pET28a+ with N-terminal His-tag; also called fibronectin EDB-domain
Assay: as above
Description: as §1, §2

B1: binds.

Biological target: T2, recombinant His-tagged fibronectin …
Assay: T7 peptide phage binding to recombinant Fn-EDB, fold over heptaglycine (G7) control phage
Description: The first panning round were performed on Fn-EDB immobilized on Costar 96-Well enzyme-linked immunosorbent assay (ELISA) plate (#3590, Corning Life Sciences, Tewksbury, Mass., USA). The plate was coated with 20 μg/ml recombinant Fn-EDB in 100 μl of PBS overnight at 4° C., followed by blocking with 1% bovine serum albumin (BSA) in PBS overnight at 4° C. The phage library solution (5×10⁸ pfu in 100 μl of PBS-BSA) were incubated overnight at 4° C., followed by 6 wash with PBS+BSA+0.1% Tween 20 to remove non-specifically bound background phages, and by phage rescue and amplification in E. coli strain BLT5403 (Novagen, EMD Biosciences, MA, USA) (Teesalu et al., 2012). The consequent rounds of selection were performed on Ni-NTA Magnetic Agarose Beads (QIAGEN, Hilden, Germany) coated with His-6X tagged Fn-EDB (30 μg/10 μl beads) at room temperature for 1 hour in 400 μl of PBS. The Fn-EDB immobilized beads were washed three times with PBS+BSA+0.1% NP40, followed by incubation of previous round phage (5×10⁸ pfu in 100 μl of PBS+BSA+0.1% NP40) for 1 hour at room temperature. The unbound/weakly bound phage removed by rinsing six times with PBS+BSA+0.1% NP40, binding phage were eluted with 1 ml of PBS+500 mM Imidazole+0.1% NP40. The recovered phage was tittered and amplified for a subsequent round of selection.
For cell-free binding studies using individually amplified phage clones; phage was incubated with Fn-EDB coated magnetic beads as described above. RPARPAR phage on NRP-1-coated beads was used as a positive control (Teesalu et al., 2009), Nucleolin (NCL) and Tenascin C—C domain (TNC-C) were used as negative control. Phage clones displaying heptaglycine peptide (GGGGGGG, G7 (SEQ ID NO:20)) or insert less phage clones were used as negative controls.

Compared with B2, B3 is higher in “Fold over G7” value: 44 fold for the first, 89 fold for the second.

First: B4
Second: B5
The “Fold over G7” value of the first is lower: 209 fold for the first, 1560 fold for the second.

Compared with B6, B7 is lower in “Fold over G7” value: 2060 fold for the first, 1 fold for the second.

First: B8
Second: B9
The “Fold over G7” value of the first is higher: 1180 fold for the first, 58 fold for the second.

Biological target: T1, recombinant His-tagged tenascin-C C …
Assay: binding specificity, T7 peptide phage
Description: (§3) To identify bispecific peptides that interact with both TNC-C and FN-EDB, cross screens were performed on both targets. During the first round of selection, microtiter plates coated with 20 μg/ml recombinant purified TNC-C were blocked with PBS containing 1% bovine serum albumin (BSA), followed by incubation with 5×10⁸ pfu of phages in PBS at 4° C. overnight, by washes to remove background, and by phage rescue and amplification in BLT5403 strain of E. coli (Novagen, EMD Biosciences, MA, USA) (Teesalu et al., Methods Enzymol. 503:35-56 (2012)). The following rounds of biopanning were carried on Ni-NTA Magnetic Agarose Beads (QIAGEN, Hilden, Germany) coated with hexahistidine-tagged FN-EDB (3 μg/μl beads) at room temperature. After 5 rounds of selection, a set of random clones was sequenced, and individual peptide-phage clones and control (G7 peptide-displaying or insertless) phages were incubated with FN-EDB and TNC-C-coated magnetic beads. RPARPAR phage (SEQ ID NO:5) and His-tagged NRP-1 b1b2 domain were used as positive control (Teesalu et al., Proc. Natl. Acad. Sci. U.S.A 106:16157-62 (2009)). To address the specificity of the peptide phage binding to the FN-EDB and TNC-C, the protein-coated beads were pre-incubated with 20 μg/ml blocking rabbit polyclonal antibodies.
as §2

B10: binds.

Biological target: T2, recombinant His-tagged fibronectin …
Assay: binding specificity, T7 peptide phage
Description: as §3, §2

B10: binds.

Biological target: T3, NRP-1 on NRP-1-positive cells (U87-MG glioma, PPC1 prostate carcinoma; U87-MG xenograft tumors) (UniProt O14786 22-923, limits assumed)
T3 construct: whole, on cells; in xenografts mouse NRP-1 is also present
Assay: nanoparticle binding and uptake on cultured cells, confocal imaging
Description: U87-MG, PPC1, and M21 cells cultured on glass coverslips were incubated with CF555-labeled AgNPs at 37° C. for 1 hour, followed by washing with medium to remove background AgNPs. Etching solution freshly diluted from 0.2 M stock solutions of Na₂S₂O₃ and K₃Fe(CN)₆ to 10 mM working concentration in PBS was applied to cells for 3 minutes, followed by PBS washes. The cells on coverslips were fixed with −20° C. methanol for 1 minute. The cell membrane was visualized by staining with Alexa Fluor 488-labeled wheat germ agglutinin (WGA) at 1:1000 at RT for 1 h. Nuclei were stained with 4′,6-diamidino-2-phenylindole (DAPI, Molecular Probes) at 1 μg/mL. Fluoromount-G (Electron Microscopy Sciences) medium was used to mount the coverslips on microscope slides for confocal imaging.
Many cultured tumor cell lines overexpress NRP-1 and internalize peptides with active CendR motif. The uptake of CF555-labeled PL3-AgNPs in NRP-1-positive U87-MG glioma and PPC1 prostate carcinoma cells, and in NRP-1-negative M21 melanoma cells was investigated. The dye-labeled AgNP cores are well suited for fluorescence imaging as the AgNP increases the brightness of the surface-bound dye by about an order of magnitude by plasmonic enhancement. The AgNPs labeled with CF647 dye were coated with neutravidin (NA) and PEGylated, creating a stable colloid ready for coating with biotinylated peptides. […]

T3 sequence (O14786 22-923 limits assumed): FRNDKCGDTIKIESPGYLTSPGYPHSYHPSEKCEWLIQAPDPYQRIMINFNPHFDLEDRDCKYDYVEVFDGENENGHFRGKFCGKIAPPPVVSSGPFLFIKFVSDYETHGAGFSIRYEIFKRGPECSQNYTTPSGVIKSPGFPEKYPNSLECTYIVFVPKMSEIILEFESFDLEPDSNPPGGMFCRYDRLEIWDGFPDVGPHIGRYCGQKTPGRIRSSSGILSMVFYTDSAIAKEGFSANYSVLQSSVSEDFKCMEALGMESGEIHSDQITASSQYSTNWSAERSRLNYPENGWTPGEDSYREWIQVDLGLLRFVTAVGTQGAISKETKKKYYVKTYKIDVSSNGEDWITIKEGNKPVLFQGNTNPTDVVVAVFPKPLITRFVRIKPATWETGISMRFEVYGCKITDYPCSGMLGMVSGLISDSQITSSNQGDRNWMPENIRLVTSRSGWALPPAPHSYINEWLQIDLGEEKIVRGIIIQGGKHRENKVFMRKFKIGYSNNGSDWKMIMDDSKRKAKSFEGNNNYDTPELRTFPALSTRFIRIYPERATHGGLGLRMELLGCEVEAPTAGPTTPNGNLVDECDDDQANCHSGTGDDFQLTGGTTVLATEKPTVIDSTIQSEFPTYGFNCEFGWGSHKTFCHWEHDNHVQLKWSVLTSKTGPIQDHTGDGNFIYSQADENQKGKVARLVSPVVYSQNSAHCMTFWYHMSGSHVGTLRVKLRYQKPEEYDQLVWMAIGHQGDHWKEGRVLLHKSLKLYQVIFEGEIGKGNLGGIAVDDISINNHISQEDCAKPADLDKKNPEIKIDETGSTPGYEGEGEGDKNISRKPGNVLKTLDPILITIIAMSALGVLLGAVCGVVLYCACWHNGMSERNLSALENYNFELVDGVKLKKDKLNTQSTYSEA

B11: binds.

Biological target: T1, recombinant His-tagged tenascin-C C …
Assay: T7 peptide phage binding to recombinant TNC-C, fold over control heptaglycine phage
Description: Throughout our screens, the phage recovered during a round of selection was amplified using plate amplification protocol (Teesalu et al., 2012). The 1st and 4th round of biopanning were performed on TNC-C immobilized on Costar 96-Well ELISA plate (#3590, Corning Life Sciences, Tewksbury, Mass., USA). Briefly, the multiwell plate was coated with 20 μg/ml recombinant TNC-C in 100 μl of PBS overnight at 4° C., followed by blocking with 1% bovine serum albumin (BSA) in PBS overnight at 4° C. The phage library solution (5×10⁸ pfu in 100 μl of PBS-BSA) were incubated overnight at 4° C., followed by 6 washes with PBS+1% BSA+0.1% Tween 20 to remove non-specifically bound background phages, and by phage rescue and amplification in E. coli strain BLT5403 (Novagen, EMD Biosciences, MA, USA) (Lingasamy, P. et al., Biomaterials 119373. 2019). The subsequent rounds of selection were performed on Ni-NTA Magnetic Agarose Beads (QIAGEN, Hilden, Germany) coated with His-6X tagged TNC-C (30 μg/10 μl beads) at room temperature for 1 hour in 400 μl of PBS. The TNC-C immobilized beads were washed three times with PBS+1% BSA+0.1% NP40, followed by incubation of previous round phage (5×10⁸ pfu in 100 μl of PBS+1% BSA+0.1% NP40) to TNC-C coated beads for 1 hour at room temperature. The unbound/weakly bound (background) phages were removed by rinsing six times with PBS+1% BSA+0.1% NP40, and the bound phages were eluted with 1 ml of PBS+500 mM Imidazole+0.1% NP40.
The recovered phage was tittered and amplified for a subsequent round of selection. […] RPARPAR phage on NRP-1-coated beads was used as a positive control (Teesalu et al., 2009). Phage clones displaying heptaglycine peptide (GGGGGGG, G7 (SEQ ID NO:20)) or insert less phage clones were used as negative controls.

Compared with B12, B13 is higher in “TNC-C binding (fold G7 control phage)” value: 3260 fold for the first, 3930 fold for the second.

Compared with B14, B15 is lower in “TNC-C binding (fold G7 control phage)” value: 4890 fold for the first, 3700 fold for the second.

Going from B16 to B17, the “TNC-C binding (fold G7 control phage)” value falls from 5960 fold to 5780 fold.

Going from B18 to B19, the “TNC-C binding (fold G7 control phage)” value rises from 115 fold to 886 fold.

Compared with B20, B21 is lower in “TNC-C binding (fold G7 control phage)” value: 1220 fold for the first, 737 fold for the second.
